Experimental data from the RNAGym collection of RNA variant scans (doi:10.1073/pnas.2313332121).

B1: TPR t1 (parent)
chain: GACCAAUCUGCCCUCAGAGCUCGAGAACAUCUUCGGAUGCAGAGGAGGCAGGCUUCGGUGGCGCGAUAGCGCCAACGUCCUCAACCUCCAAUGCAUCCCACCACAUGAUGAUGCCUGAAGAGCCUUGGUUUUUUG

Variants of: B1
Experiment: polymerase ribozyme fitness, log enrichment relative to wild type (log ratio); higher = more active; in vitro selection for triplet polymerase activity
In short: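 Only genotypes with ≥10 input reads and ≥1 read per output were kept after Illumina sequencing of input and output libraries. These libraries were PCR-built, transcribed mutants of each subunit of a heterodimeric triplet polymerase ribozyme, each put through one triplicate in vitro selection round with frozen incubation at −7 °C, gel excision of extended constructs, streptavidin-bead capture and RT-PCR. Fitness is a logarithmic ratio of genotype enrichment to wild-type enrichment, from inverse-variance-weighted replicate averages, with the logarithm in base 2.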

In order of rising “polymerase ribozyme fitness (log ratio)” value:
1. C49A G63A C70A U109C  -7.14
2. A18U A50C C70A G71A C123U  -6.84
3. G35U U106C G122A  -6.34
4. U32C G47U G48U C104G G117U G127C  -6.32
5. U9C G36C A50U C70A A75U U106A  -6.28
6. C8A A37G C62G C99U G122A  -6.04
7. C8G G42C C70G  -5.8
8. A18G C64G C98U G117C  -5.51
9. A50U U55G G58A  -5.41
10. G17C G57A C124U  -5.29
11. C15U A18U C31A G39U U54A C70U C114U C115G  -5.12
12. C13U G60A G69A U112G  -5.04
13. G42C G71U G117C  -4.87
14. A37U U54A G61C C102A  -4.66
15. C82A U109G  -4.53
16. G17C G39A C64U  -4.45
17. U21A C97G  -4.44
18. A2G C49U C62A C94G  -4.35
19. A18C G69C  -4.31
20. A18U A46C G52A  -4.31
21. C13G C40A G63A  -4.13
22. G39U G60C C62U C97U  -3.98
23. A5C U7C G69U C85A U92C  -3.85
24. C56G G57C U92G U96A U132A  -3.72
25. C56G G110C  -3.6
26. G36U G42A  -3.47
27. A18C A83G A105G C115U  -3.42
28. C13G C62G U87C A121C  -3.3
29. A29U A66G  -3.28
30. C80U U81A C89U U126G  -3.21
31. A37G G52A G61U  -3.07
32. C28G C72U  -3.07
33. G47U A100C  -2.83
34. G61A C85U G117A U129C  -2.75
35. C13A G60U C86U  -2.73
36. G61A A74U C101G G120C  -2.7
37. A37C G44U U133G  -2.6
38. C72A A91G U92G G113C  -2.41
39. G36A U129G  -2.39
40. A18U U112C G128A  -2.38
41. U32A U112A  -2.37
42. C8A A41U A84G  -2.05
43. C11A G69C  -2.03
44. G45C U132A  -1.99
45. C79U U81C  -1.91
46. U38G A84U  -1.9
47. C4U U7G A27U A119G  -1.81
48. C62A U96G  -1.8
49. U38A U59G A83C  -1.75
50. C82A A91C  -1.72
51. C13U A16C A91G C104U  -1.72
52. A105C U130C  -1.55
53. C49U G52C U55C  -1.55
54. G10A A24G  -1.53
55. A5U U21C C97U  -1.38
56. C12U G44C C79A C89A  -1.32
57. A16C C56G A121C  -1.27
58. G52U U87A  -1.25
59. C12A C53G  -1.23
60. A41C U78G  -1.18
61. C40U A43U  -1.09
62. A29G C104U U106G  -1.09
63. A29U U112G  -0.993
64. C98U U130G  -0.947
65. C11A C12U A37G C73U U78A U131A  -0.943
66. C73U A84G  -0.874
67. C49A G77C  -0.848
68. A37U A50G U54G  -0.818
69. U54C A75G C79A  -0.763
70. G52U C72U  -0.747
71. A26U C124A  -0.634
72. G71A A75G C104U  -0.612
73. G120A G122C  -0.571
74. G52C C56A  -0.559
75. A37G C62U  -0.523
76. A2G G135U  -0.44
77. G61A G93C  -0.381
78. U32C C72G  -0.273
79. C49A G120U  -0.22
80. G61A C73A  -0.202
81. A50U C124G  -0.185
82. G39C C97U G120C  0.357
83. A84U C124U  0.806
84. C8U C123A U132A  1.43
